Consider one molecule from patent publication US20250108100A1, “C-TERMINAL FRAGMENT OF APOLIPOPROTEIN E AND APPLICATION THEREOF IN INHIBITING y-SECRETASE ACTIVITY” (SYNPHATEC (SHANGHAI) BIOPHARMACEUTICAL TECHNOLOGY CO., LTD., priority 2022, published 2025).

“Also recorded” adds a separate entry of the source.

Experiment [1] concerns HEK 293T cells expressing APP. The experiment in a line: APP-expressing HEK 293T cells co-incubated with culture medium containing secreted ApoE2 or ApoE CT: α-CTF. In kind it is cell-based, human. The conditions noted are these: vs GFP control. On the procedure:
• a) A plasmid expressing the target protein in mammalian cells was constructed, and the protein expression promoter is CAG. • b) The target protein was expressed in HEK 293T cell line. Cells were subcultured one day before transfection, and transfection was performed when the degree of cell adhesion reached 70%-80%. The transfection reagent was lipofectamine2000 (ThermoFisher). • c) 4-6 hours post transfection, the medium were replaced with fresh cell culture medium. • d) 36-48 hours post transfection, the cells were lysed (10% 1M tris-HCl (pH=6.8), 4% SDS, 20% glycerol, 0.01% bromophenol blue), and the protein samples were collected and used for Western blot or stored in a −80° C. freezer. • e) Polyacrylamide gel electrophoresis. Before protein loading, the protein was boiled at 98° C. for 10 min, and then centrifuged at 12000 rpm for 10 min. Electrophoresis: 80V for the upper stacking gel; 120V for the lower separating gel. • f) Protein transfer. […]

In experiment [2] the test system is APP and BACE1 co-expressed in N2A cells. As to the kind of experiment: Aβ40 ELISA in N2A cells co-expressing APP and BACE1. In kind it is cell-based, mouse. As to the method:
48 hours after transfection of HEK 293T cells and N2A cells, or 4.5 days after lentivirus infection of neurons, media and lysates were collected. Aβ40 and Aβ42 in the culture medium and cell lysates were detected by an Aβ ELISA kit as indicated in the protocol. (Invitrogen Technology; KHB3481 for human Aβ40, KHB3441 for human Aβ42 and KMB3481 for mouse Aβ40).
Data were analyzed by GraphPad Prism software (v6) using unpaired, paired, or one-sample t-tests. Aβ40 and Aβ42 levels were normalized to the corresponding GFP controls. α-CTF levels were normalized to FL-APP and corresponding GFP controls. All data are represented as mean±SEM. Statistical significance was defined as p<0.05. One, two, three and four stars (*) in the graph indicate p-values <0.05, <0.01, <0.001 and <0.0001, respectively.
For orientation: ELISA stands for enzyme-linked immunosorbent assay.

B1: ApoE CT: C-terminal fragment of ApoE, positions 216-299 of SEQ ID NO: 12; SEQ ID NO: 33 (protein)
chain: ARMEEMGSRTRDRLDEVKEQVAEVRAKLEEQAQQIRLQAEAFQARLKSWFEPLVEDMQRQWAGLVEKVQAAVGTSAAPVPSDNH
Turning to B1, in experiment [1], the “α-CTF produced by APP in cells co-incubated with protein in culture medium” value is “does not significantly alter α-CTF levels; also recorded: does not change the α-CTF; also recorded: does not alter the α-CTF”. The “total Aβ40” value in experiment [2] is on record as “significantly reduced”.
